Measured values as given in paper PMC5433095 (mBio, 2017).

Columns and labels:
[1] = target: T1, E1E2 glycoprotein complex on infectious cell culture-derived HCV particles (HCVcc) of strain JFH-1 (Hepatitis C virus genotype 2a, isolate …, UniProt Q99IB8); experiment: immunocapture of virus particles; conditions: one partner purified
T1 construct: source: concentrated HCVcc of infectious HCV strain JFH-1

[2] = target: genotype 2a JFH1 E1E2 displayed on retrovirus-based HCV pseudoparticles (HCVpp) (Hepatitis C virus genotype 2a, isolate …, UniProt Q99IB8); experiment: immunocapture of virus particles; conditions: one partner purified

B1: MAb DAO5 IgG (antibody, V domains shown)
VH: EVQLQQSGPELVKPGASLKISCKTSGYTFTDFTFHWVKLSHGPSLEWIGTIKPSNGDTAYNQKFKGKATLSVDKSASTAHIEFRSLTSEDSAVYFCARFGGSYPYAMDYWGQGTSVIVSS
VL: DIVLTQSPATLSVTPGDRVSLSCRASQGIYNYVHWFQQKSHESPRLLIKYASQSISGIPSRFSGSGSGTDFTLSINSVESEDFGMYFCQQTNKWPLTFGAGTKLELK
binding result [1]: binds | binding result [2]: binds
